The supplement of paper PMC10567573

B1: TRIM29 (parent)
chain: RKCPVHGKTMELFCQTDQTCICYL
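Further: lentivirally expressed fusions sorted by FACS into six bins by GFP to DsRed ratio, PSI derived from sequencing read proportions per bin multiplied by bin number.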

Variants of: B1
Assay: protein stability index of a GFP-peptide fusion (GPS, HEK-293T) (PSI 1-6); higher = more stable
Settings: c terminus: a fixed tail appended
Q18G gave a protein stability index of 2.79. Q18K showed a protein stability index of 3.94. Variant Q18D has a protein stability index of 1.79. Variant Q18T has a protein stability index of 2.36. Variant Q18F has a protein stability index of 2.71. Q18V gave a protein stability index of 2.65. For Q18H, the protein stability index was 2.18. Variant Q18N has a protein stability index of 1.82. Work on Q18R yielded a protein stability index of 1.97. With Q18P the protein stability index was 2.7. For Q18Y, the protein stability index was 1.42. For Q18M, the protein stability index was 2.12. Work on Q18W yielded a protein stability index of 1.56. Variant Q18A has a protein stability index of 1.73. Work on Q18S yielded a protein stability index of 1.68. Work on Q18C yielded a protein stability index of 2.22. In the case of Q18E, the protein stability index is reported as 2.75. Q18L gave a protein stability index of 2.11. Work on T19H yielded a protein stability index of 2.95. Work on T19I yielded a protein stability index of 3.16. T19V showed a protein stability index of 1.31. For T19C, the protein stability index was 2.66. With T19A the protein stability index was 3.62. With T19M the protein stability index was 2.51. For T19Y, the protein stability index was 1.89. Work on T19L yielded a protein stability index of 1.59. Variant T19G has a protein stability index of 2.42. With T19S the protein stability index was 2.63. Variant T19E has a protein stability index of 2.4. In the case of T19W, the protein stability index is reported as 2.47. T19F gave a protein stability index of 1.88. Variant T19D has a protein stability index of 1.6. With T19N the protein stability index was 2.16. T19P gave a protein stability index of 2.35. Variant T19Q has a protein stability index of 2.32. Work on T19K yielded a protein stability index of 2.44. T16Q showed a protein stability index of 2.91. For T16H, the protein stability index was 2.44. Work on T16V yielded a protein stability index of 2.6. Work on T16K yielded a protein stability index of 2.15. Variant T16I has a protein stability index of 1.98. T16C showed a protein stability index of 3.37. In the case of T16S, the protein stability index is reported as 2.34. Work on T16P yielded a protein stability index of 2.06. Variant T16N has a protein stability index of 2.62. Variant T16Y has a protein stability index of 2.54. With T16M the protein stability index was 1.57. For T16D, the protein stability index was 2.1. For T16A, the protein stability index was 2.24. Work on T16R yielded a protein stability index of 1.91. Work on T16F yielded a protein stability index of 2.51. With T16E the protein stability index was 1.78. Variant T16G has a protein stability index of 3.39. With T16L the protein stability index was 1.56. For T16W, the protein stability index was 2.17. With C14M the protein stability index was 1.46. C14V showed a protein stability index of 1.47. Variant C14W has a protein stability index of 1.89. For C14R, the protein stability index was 2.5. Variant C14I has a protein stability index of 2.41. Variant C14N has a protein stability index of 2.33. C14A gave a protein stability index of 2.5. C14P showed a protein stability index of 2. Variant C14D has a protein stability index of 2.1. For C14S, the protein stability index was 2.35. In the case of C14H, the protein stability index is reported as 2.83. Work on C14Y yielded a protein stability index of 2.59. Variant C14Q has a protein stability index of 2.03. In the case of C14L, the protein stability index is reported as 2.27. For C14F, the protein stability index was 3.17. For C14G, the protein stability index was 1.86. C14T showed a protein stability index of 3.06. C14K showed a protein stability index of 1.89. Work on C14E yielded a protein stability index of 2.77. C22D gave a protein stability index of 2.38. With C22F the protein stability index was 1.31. C22E gave a protein stability index of 2.58. Variant C22H has a protein stability index of 2.01. In the case of C22A, the protein stability index is reported as 1.87. With C22G the protein stability index was 1.99. With D17A the protein stability index was 2.19. With D17K the protein stability index was 1.52. In the case of D17P, the protein stability index is reported as 2.04. D17L gave a protein stability index of 3.97. D17G gave a protein stability index of 2.73. For D17T, the protein stability index was 1.76. Work on D17H yielded a protein stability index of 1.89. Variant D17F has a protein stability index of 1.49. With D17Q the protein stability index was 1.66. Work on D17N yielded a protein stability index of 1.7. With D17R the protein stability index was 2.8. With D17C the protein stability index was 2.08. D17M gave a protein stability index of 1.93. In the case of D17E, the protein stability index is reported as 3.12. D17Y gave a protein stability index of 2.92. D17S gave a protein stability index of 1.49. With D17I the protein stability index was 1.79. Work on F13L yielded a protein stability index of 2.04. Work on F13Q yielded a protein stability index of 3.27. Work on F13E yielded a protein stability index of 2.47. F13V gave a protein stability index of 2.58. Variant F13S has a protein stability index of 2.5. Variant F13R has a protein stability index of 1.96. F13I gave a protein stability index of 2.89. In the case of F13P, the protein stability index is reported as 2.4. For F13A, the protein stability index was 1.78. Work on F13N yielded a protein stability index of 2.72. With F13M the protein stability index was 3.16. In the case of F13K, the protein stability index is reported as 2.99. F13C showed a protein stability index of 2.23. F13H gave a protein stability index of 2.5. F13T gave a protein stability index of 2.38. For F13Y, the protein stability index was 2.32. In the case of F13G, the protein stability index is reported as 2.93. For I21S, the protein stability index was 1.91. For I21P, the protein stability index was 2.44. Variant I21A has a protein stability index of 2.77. I21K gave a protein stability index of 2.02. Work on I21L yielded a protein stability index of 1.73. I21T showed a protein stability index of 3. I21V gave a protein stability index of 1.92. I21E showed a protein stability index of 4.47. I21W gave a protein stability index of 2.78. In the case of I21Q, the protein stability index is reported as 3.36. With I21H the protein stability index was 2.98. With I21D the protein stability index was 4.33. Work on I21M yielded a protein stability index of 2.36. In the case of I21G, the protein stability index is reported as 3.1. With I21Y the protein stability index was 3.25. Variant I21R has a protein stability index of 1.88. Work on I21F yielded a protein stability index of 2.86. Work on I21C yielded a protein stability index of 3.49. I21N showed a protein stability index of 2.52. For Q15H, the protein stability index was 2.26. Work on Q15T yielded a protein stability index of 2.14. In the case of Q15R, the protein stability index is reported as 1.78. Variant Q15V has a protein stability index of 2.75. Q15L gave a protein stability index of 3.21. For Q15S, the protein stability index was 2.48. With Q15Y the protein stability index was 1.92. For Q15C, the protein stability index was 3.22. Work on Q15P yielded a protein stability index of 2.66. In the case of Q15F, the protein stability index is reported as 3.06. For Q15K, the protein stability index was 1.79. Work on Q15N yielded a protein stability index of 2. With Q15M the protein stability index was 2.43. Work on Q15E yielded a protein stability index of 1.56. Work on Q15G yielded a protein stability index of 2.93. Work on Q15A yielded a protein stability index of 2.75. Work on Q15D yielded a protein stability index of 1.52. Variant Q15I has a protein stability index of 1.88. For C20W, the protein stability index was 2.42. With C20V the protein stability index was 1.27. Variant C20D has a protein stability index of 3.16. C20I showed a protein stability index of 1.25. Work on C20N yielded a protein stability index of 3.24. C20P gave a protein stability index of 1.83. In the case of C20Q, the protein stability index is reported as 3.07. With C20S the protein stability index was 2.56. C20A showed a protein stability index of 3.08. C20H showed a protein stability index of 3.04. For C20K, the protein stability index was 3.17. Variant C20L has a protein stability index of 2.28. With C20R the protein stability index was 2.38. C20M showed a protein stability index of 3.2. In the case of C20Y, the protein stability index is reported as 2.78. C20G gave a protein stability index of 3.31.
